The target of assay [1] is T1, CD27 expressed on the cell surface of HT1080_CD27 cells (human, UniProt P26842 20-260).
T1 sequence (looked up): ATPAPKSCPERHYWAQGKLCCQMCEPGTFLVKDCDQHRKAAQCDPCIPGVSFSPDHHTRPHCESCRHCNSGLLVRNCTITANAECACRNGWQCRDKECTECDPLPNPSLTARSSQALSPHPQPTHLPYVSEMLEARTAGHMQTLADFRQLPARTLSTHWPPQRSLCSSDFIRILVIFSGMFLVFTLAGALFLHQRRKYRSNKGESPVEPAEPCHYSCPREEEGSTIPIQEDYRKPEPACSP
In words: cell-based or functional assay.

Assay [2] has as its target T1, CD27 expressed on the cell surface of …. Briefly: HT1080_CD27 cells, imaging.
Assay [3] addresses T2, CD27 protein (His-tagged, Sino Biological Inc. 10039-H08B1) (human, UniProt P26842 20-192).
T2 construct: bought protein coated on ELISA plates; also called TNFRSF7; not shown: His tag
T2 sequence (looked up): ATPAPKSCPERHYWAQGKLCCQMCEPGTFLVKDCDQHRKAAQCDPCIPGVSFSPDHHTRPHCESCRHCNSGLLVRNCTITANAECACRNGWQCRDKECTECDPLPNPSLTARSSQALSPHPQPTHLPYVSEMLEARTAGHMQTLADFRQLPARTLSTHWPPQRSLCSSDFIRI
Briefly: ELISA, coated His-tagged CD27. Background: An ELISA detects its analyte on a solid surface through an enzyme-linked reagent.
Note: test concentration or dose not given here.

B1: P018.S.10.A.C01 (antibody, V domains shown)
VH: QSVEESGGRLVTPGTPLTLTCTLSGFSLSNYAMSWVRQAPGKGLEWIGVIYTSGTTHYASWAKGRFTISKTSTTVDLRMTSLTTEDTATYFCARSRYYGSGWGGYYFNLWGQGTLVTVSS
VL: DVVMTQTPSPVSAAVGGTVTINCQASEDIYSLLAWYQQKPGQRPKLLIYGASNLESGVPSRFKGSGSGTEYTLTISGVQSADAATYYCHGGTYTGSADINAFGGGTEVVVE
notes: V regions on human Ig constant parts; also called AB27_170
As for B1, in assay [1], the “Functional assay Cross-linked by F(ab′)2 fragment IL-8” value (“Functional assay Cross-linked” below) was 1.1 abs. corr and the “Functional assay IL-8” value is -0.046 abs. corr. Also, in assay [2], the “Cellular binding assay [RFU]” value is 266 RFU. Moreover, the “ELISA [abs. corr.]” value in assay [3] came to 2.93 abs. corr.

B2: P018.S.07.A.D05 (antibody, V domains shown)
VH: QSLEESGGDLVKPEGSLTLTCTASGFSFSSSYWICWVRQAPGKGLEWIGCMITGRGNTYYATWAKGRFTISKTSSTTVTLQMTSLTAADTATYFCARGPGGADPINLWGPGTLVTVSS
VL: DVVMTQTPASVSEPVGGTVTIKCQASQNIYNNLAWYQQKPGQPPKLLIYLASTLASGVPSRFEGSGSGTEFTLTISGVQSDDAATYYCQSTYDGSSYVPNAFGGGTEVVVK
notes: V regions on human Ig constant parts; also called AB27_124
With B2, in assay [1], the “Functional assay Cross-linked” value was 1.64 abs. corr and the “Functional assay IL-8” value was -0.032 abs. corr. Moreover, the “Cellular binding assay [RFU]” value in assay [2] was 329 RFU. The “ELISA [abs. corr.]” value in assay [3] was found to be 3.08 abs. corr.

B3: P018.S.10.A.E02 (antibody, V domains shown)
VH: QEQLEESGGDLVKPEGSLTLTCTASGFSFSSSFYMCWVRQAPGKGLEWVACIYAEDSDYTYYASWAKGRFTISKTSSTTVTLQMTSLTAADTATYFCAREILYPTNTDSFDLWGPGTLVTVSS
VL: AFELTQTPSSVEAAVGGTVTIKCQASESFSSRLAWYQQKPGQPPKLLIYRASTLASGVPSRFKGSGSGTDFTLTISDLESADAAAYYCQAYVGISSGGYAFGGGTEVVVG
notes: V regions on human Ig constant parts; also called AB27_176
For B3, in assay [1], the “Functional assay Cross-linked” value was determined as 1.39 abs. corr and the “Functional assay IL-8” value turned out to be 0.23 abs. corr. Besides, the “Cellular binding assay [RFU]” value in assay [2] was 395 RFU. Further, in assay [3], the “ELISA [abs. corr.]” value worked out at 3.02 abs. corr.

B4: P018.S.10.A.H05 (antibody, V domains shown)
VH: QSLEESGGRLVTPGTPLTLTCTASGFSLSTYYMSWVRQAPGKGLEWIGIIYTSGSTYYASWAKGRFTISRNSTTVDLKITSPTTEDTATYFCARSRVPGDTTGLYYFNLWGPGTLVTVSS
VL: ALVMTQTPASVSAAVEGTVTINCQASENIYSNLAWYQQKPGQPPKLLIYHTSNLASGVPSRFKGSGAGTEFTLTISDLESDDAATYYCQSAYDSSSSDTFTFGGGTEVVVK
notes: V regions on human Ig constant parts; also called AB27_186
Consider B4, for which, in assay [1], the “Functional assay Cross-linked” value is 1.11 abs. corr and the “Functional assay IL-8” value was -0.155 abs. corr. The “Cellular binding assay [RFU]” value in assay [2] came out at 313 RFU. Moreover, the “ELISA [abs. corr.]” value in assay [3] stood at 2.96 abs. corr.

B5: P018.S.06.A.B01 (antibody, V domains shown)
VH: QSLEESGGGLVKPEGSLTLTCTASGFSFSSSYWICWVRQAPGKGLEWIGCIYAGTFSDTFYASWTKGRFTISKTSSTTVTLQMTSLTGADTATYFCARGHYYYTDNYTANGYGRGLTRLDLWGQGTLVTVSS
VL: AAVLTQTPSPVSAAVGGTVTISCQASQSVYNNNNLAWYQQKAGQPPKLLIYGASNLESGVPSRFKGSGSGTQFTLTISDLESDDAASYYCAGGYTTSGDNGFGGGTEVVVK
notes: V regions on human Ig constant parts; also called AB27_98
Turning to B5, in assay [1], the “Functional assay Cross-linked” value was 1.18 abs. corr and the “Functional assay IL-8” value is 0.106 abs. corr. Also, the “Cellular binding assay [RFU]” value in assay [2] came to 279 RFU. Further, in assay [3], the “ELISA [abs. corr.]” value stood at 2.94 abs. corr.

B6: P018.S.06.A.A05 (antibody, V domains shown)
VH: QSLEESGGRLVTPGTPLTLTCTVSGIDLSSYAMGWVRQAPGKGLELIGLIYASNRTHYATWAKGRFTISKSSTTVDLKATSLTTEDTATYFCGRYGRGSGGYYYGMDLWGPGTLVTVSS
VL: DVVMTQTPASVEAAVGGTVTIKCQASQSGDNYLSWYQQKSGQPPKLLIYLASTLASGVPSRFRGSRSGTEYTLTISDLESADAATYYCQNYCAGSGVCVGVAFGGGTEVVVK
notes: V regions on human Ig constant parts; also called AB27_97
For the molecule B6, in assay [1], the “Functional assay Cross-linked” value amounted to 1.09 abs. corr and the “Functional assay IL-8” value is 0.433 abs. corr. The “Cellular binding assay [RFU]” value in assay [2] came out at 140 RFU. Also, the “ELISA [abs. corr.]” value in assay [3] stood at 2.95 abs. corr.

B7: P018.S.09.A.F06 (antibody, V domains shown)
VH: QSVEESGGRLVTPGGSLTLTCSVSGIDLSSYAMNWVRQAPGKGLEWIGIISTGGSTYYANWAKGRFTISKTSTTVDLKITSPTTEDTATYICARDVGGTTVPYYFDLWGPGTLVTVSS
VL: AYDMTQTPASMEVAVGGTVTIKCQASESISSWLAWYQQKPGQPPKPLIYEASRLASGVPSRFKGSGSGTEFTLTISGVESADAATYYCQQGYGSSDVHNIFGGGTEVVVK
notes: V regions on human Ig constant parts; also called AB27_158
With B7, in assay [1], the “Functional assay Cross-linked” value worked out at 2.03 abs. corr and the “Functional assay IL-8” value turned out to be 0.58 abs. corr. Also, the “Cellular binding assay [RFU]” value in assay [2] came out at 218 RFU. Moreover, the “ELISA [abs. corr.]” value in assay [3] came to 2.98 abs. corr.

B8: P018.S.09.A.C02 (antibody, V domains shown)
VH: QSVEESGGRLVTPGTPLTLTCTVSGIDLSSYVMSWVRQAPGKGLEWIGYIDYGGTAYYASWAKGRFTISKTSTTVELKITSPTIEDTATYFCARGGYGGYTLVTALWGPGTLVTVSS
VL: DIVMTQTPASVSEPVGGTVTIKCQASQSISSYLSWYQQKPGQPPKLLIYSTSTLASGVSSRFKGSGSGTEYTLTISDLESADAATYYCQTYYGGGPFGNGFGGGTEVVVK
notes: V regions on human Ig constant parts; also called AB27_147
As to B8, in assay [1], the “Functional assay Cross-linked” value turned out to be 1.07 abs. corr and the “Functional assay IL-8” value was 0.07 abs. corr. For the same molecule, the “Cellular binding assay [RFU]” value in assay [2] came out at 323 RFU. Further, the “ELISA [abs. corr.]” value in assay [3] stood at 2.94 abs. corr.

B9: P018.S.06.A.H05 (antibody, V domains shown)
VH: QSLEESGGDLVQPEGSLTLTCKASGFDFSSTYWICWVRQAPGKGLEWIGCIDDSYAYTYYASWAKGRFTISKPSSTTVTLQVTSLTVADTATYFCARDGYPGYGVGSFNLWGPGTLVTVSS
VL: AIVMTQTPSSKSVPVGDTVTINCQASESVYSNNRLAWFQQKPGQPPKLLIYLASTLASGVPSRFKGSGSGTQFTLTISDVVSDDAATYYCAGYKSYSDDGTGFGGGTEVVVK
notes: V regions on human Ig constant parts; also called AB27_112
On to B9, for which, in assay [1], the “Functional assay Cross-linked” value is 1.56 abs. corr and the “Functional assay IL-8” value came to 0.278 abs. corr. Also, in assay [2], the “Cellular binding assay [RFU]” value came out at 308 RFU. Besides, the “ELISA [abs. corr.]” value in assay [3] is 2.98 abs. corr.

B10: P018.S.09.A.E02 (antibody, V domains shown)
VH: QSLEESGGRLVTPGTPLTLTCTASGFTISSHHMTWVRQAPGEGLEWLGVIFPSGHTYYTSWAKGRFTISRTSTTVDLKMASLTIEDTATYFCVRDVGYFTLWGQGTLVTVSS
VL: AQVLTQTPSPVSAAVGGTVTISCQSSESVGGNNWLAWYQQKLGQPPKLLIYGASTLASGVPSRFSGSGSGTQFTLTISEVQSDDAATYYCQGYYSDVTNAFGGGTEVVVE
notes: V regions on human Ig constant parts; also called AB27_153
Consider B10, for which, in assay [1], the “Functional assay Cross-linked” value was 1.61 abs. corr and the “Functional assay IL-8” value was 0.172 abs. corr. In assay [2], the “Cellular binding assay [RFU]” value stood at 305 RFU. Moreover, the “ELISA [abs. corr.]” value in assay [3] was found to be 2.98 abs. corr.

B11: P018.S.01.A.A06 (antibody, V domains shown)
VH: QSVEESGGRLVTPGTPLTLTCTVSGIDLSTYAMSWVRQAPGKGLEWIGIIYGSGYTYYASWAKGRATISKTSSTTVDLKITSPTTEDTATYFCASGYGISSGNFLHFNLWGQGTLVTVSS
VL: AYDMTQTPASVEVAVGGTVTIKCQASESIYFNLAWYQQKPGQRPKLLIYRASTLASGVSSRFKGSGSGTQFTLTISGVESADAATYYCQQGYDSSHIDNAFGGGTEVVVT
notes: V regions on human Ig constant parts; also called AB27_3
Consider B11, for which, in assay [1], the “Functional assay Cross-linked” value was found to be 1.92 abs. corr and the “Functional assay IL-8” value was 0.566 abs. corr. Moreover, the “Cellular binding assay [RFU]” value in assay [2] worked out at 287 RFU. For the same molecule, the “ELISA [abs. corr.]” value in assay [3] was found to be 3.09 abs. corr.

B12: P018.S.03.A.G05 (antibody, V domains shown)
VH: QSLEESGGDLVKPEGSLTLTCTASGFSFSSGGWICWVRQAPGRGLEWIACIYVGSSGTTHYASWAKGRFTISKTSSTTVTLQMTSLTAADTATYFCARGAVYGGGSYDNFHLWGPGTLVTVSS
VL: AYDMTQTPASVSEPVGGTVTIKCQASQSIGSYLSWYQQKPGQRPKLLIYAASTLASGVQSRFKGSGSGTDYTLTISGVQSDDAATYYCQQGYNISNLDNTFGGGTEVVVK
notes: V regions on human Ig constant parts; also called AB27_58
In the case of B12, in assay [1], the “Functional assay Cross-linked” value stood at 1.27 abs. corr and the “Functional assay IL-8” value was determined as 0.031 abs. corr. In addition, the “Cellular binding assay [RFU]” value in assay [2] is 269 RFU. In addition, the “ELISA [abs. corr.]” value in assay [3] was found to be 2.98 abs. corr.

B13: P018.S.05.A.E03 (antibody, V domains shown)
VH: QSLEESGGRLVTPGGSLTLTCTVSGIDLSSYAMGWVRQAPGKGLEWIGYITYGGSTYYANWVNGRFTISKTSTMVDLKMTSLTAADTATYFCARLRAPYYYRIYFNLWGPGTLVTVSS
VL: ALVMTQTPSSVEAAVGGTVTIKCQASQNIISALAWYQQKPGQPPKLLIYDASNLESGVPSRFKGSGSGTDFTLTISDLESADAATYYCQGAYDTNINDFGGGTEVVVK
notes: V regions on human Ig constant parts; also called AB27_89
As to B13, in assay [1], the “Functional assay Cross-linked” value turned out to be 1.92 abs. corr and the “Functional assay IL-8” value is 0.208 abs. corr. The “Cellular binding assay [RFU]” value in assay [2] is 322 RFU. For the same molecule, in assay [3], the “ELISA [abs. corr.]” value is 3.07 abs. corr.

B14: P018.S.03.A.D04 (antibody, V domains shown)
VH: QEHLEESGGGLVQPGGTLTLTCKASGIDFSSSYYMCWVRQAPGKGLERLACTYNRDGSTYYASWAKGRFTISKTSSTTVTLQMTSLTVADTATYFCARDDGYPGSGYVLNLWGPGTLVTVSS
VL: DVVMTQTPASVEAAVGGTVTIRCQASQSVSNYFSWYQQKPGQPPKLLIYGASNLESGVPSRFKGSGSGTEFTLTISGVQSDDAATYYCQGGYYSSNTDNNSFGGGTEVVVK
notes: V regions on human Ig constant parts; also called AB27_49
Turning to B14, in assay [1], the “Functional assay Cross-linked” value stood at 1.23 abs. corr and the “Functional assay IL-8” value stood at 0.513 abs. corr. In addition, the “Cellular binding assay [RFU]” value in assay [2] was 270 RFU. In assay [3], the “ELISA [abs. corr.]” value is 3.1 abs. corr.

The values above are taken from patent US20210253725A1 (BIONTECH, published 2021).
